Columns and labels:
Assay in all cases: pull-down
[1] = target: ZF2 (recombinant, pull-down) (Arabidopsis thaliana, UniProt Q9SSW2 1-273)
[2] = target: T1, VAL1 (recombinant, pull-down) (Arabidopsis thaliana, UniProt Q8W4L5 1-790)
T1 sequence (looked up): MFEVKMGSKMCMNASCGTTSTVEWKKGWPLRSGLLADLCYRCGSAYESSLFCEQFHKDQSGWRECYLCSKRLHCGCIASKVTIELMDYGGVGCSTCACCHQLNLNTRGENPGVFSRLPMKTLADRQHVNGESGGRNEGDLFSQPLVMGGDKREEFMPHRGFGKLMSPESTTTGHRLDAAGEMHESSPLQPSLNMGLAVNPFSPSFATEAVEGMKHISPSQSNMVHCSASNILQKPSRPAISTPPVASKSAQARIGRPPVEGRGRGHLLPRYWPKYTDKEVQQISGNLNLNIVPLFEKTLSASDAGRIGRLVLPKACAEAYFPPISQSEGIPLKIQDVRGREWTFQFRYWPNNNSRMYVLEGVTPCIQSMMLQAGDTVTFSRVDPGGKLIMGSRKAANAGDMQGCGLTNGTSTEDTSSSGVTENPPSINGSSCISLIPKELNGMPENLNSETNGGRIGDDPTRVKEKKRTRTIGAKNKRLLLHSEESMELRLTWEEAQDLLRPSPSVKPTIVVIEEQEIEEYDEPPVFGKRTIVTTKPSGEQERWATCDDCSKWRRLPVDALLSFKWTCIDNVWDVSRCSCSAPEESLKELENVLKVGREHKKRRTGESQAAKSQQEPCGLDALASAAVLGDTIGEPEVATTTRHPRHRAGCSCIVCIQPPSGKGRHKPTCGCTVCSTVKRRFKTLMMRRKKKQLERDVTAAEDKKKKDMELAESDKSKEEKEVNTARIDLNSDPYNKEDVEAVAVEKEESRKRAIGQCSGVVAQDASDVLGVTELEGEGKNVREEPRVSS

[3] = target: T2, MINU2-3 (C-terminal domain of the MAS catalytic enzyme MINU2, 677-1,064 aa) (Arabidopsis thaliana, UniProt F4K128 677-1064)
T2 sequence (looked up): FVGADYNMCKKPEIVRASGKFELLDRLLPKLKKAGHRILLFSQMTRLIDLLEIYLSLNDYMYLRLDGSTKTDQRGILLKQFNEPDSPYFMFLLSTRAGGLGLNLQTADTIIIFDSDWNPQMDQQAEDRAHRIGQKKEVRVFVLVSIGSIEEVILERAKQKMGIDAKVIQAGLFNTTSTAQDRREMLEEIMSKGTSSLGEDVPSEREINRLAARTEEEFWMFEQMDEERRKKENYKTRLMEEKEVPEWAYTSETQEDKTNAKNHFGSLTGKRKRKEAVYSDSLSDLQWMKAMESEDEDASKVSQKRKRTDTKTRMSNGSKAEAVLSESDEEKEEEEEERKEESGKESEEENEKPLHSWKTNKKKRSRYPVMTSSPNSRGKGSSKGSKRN

[4] = target: T3, UBP5 (H2A deubiquitinase, subunit of the PEAT complex) (Arabidopsis thaliana, UniProt O22207 1-924)
T3 sequence (looked up): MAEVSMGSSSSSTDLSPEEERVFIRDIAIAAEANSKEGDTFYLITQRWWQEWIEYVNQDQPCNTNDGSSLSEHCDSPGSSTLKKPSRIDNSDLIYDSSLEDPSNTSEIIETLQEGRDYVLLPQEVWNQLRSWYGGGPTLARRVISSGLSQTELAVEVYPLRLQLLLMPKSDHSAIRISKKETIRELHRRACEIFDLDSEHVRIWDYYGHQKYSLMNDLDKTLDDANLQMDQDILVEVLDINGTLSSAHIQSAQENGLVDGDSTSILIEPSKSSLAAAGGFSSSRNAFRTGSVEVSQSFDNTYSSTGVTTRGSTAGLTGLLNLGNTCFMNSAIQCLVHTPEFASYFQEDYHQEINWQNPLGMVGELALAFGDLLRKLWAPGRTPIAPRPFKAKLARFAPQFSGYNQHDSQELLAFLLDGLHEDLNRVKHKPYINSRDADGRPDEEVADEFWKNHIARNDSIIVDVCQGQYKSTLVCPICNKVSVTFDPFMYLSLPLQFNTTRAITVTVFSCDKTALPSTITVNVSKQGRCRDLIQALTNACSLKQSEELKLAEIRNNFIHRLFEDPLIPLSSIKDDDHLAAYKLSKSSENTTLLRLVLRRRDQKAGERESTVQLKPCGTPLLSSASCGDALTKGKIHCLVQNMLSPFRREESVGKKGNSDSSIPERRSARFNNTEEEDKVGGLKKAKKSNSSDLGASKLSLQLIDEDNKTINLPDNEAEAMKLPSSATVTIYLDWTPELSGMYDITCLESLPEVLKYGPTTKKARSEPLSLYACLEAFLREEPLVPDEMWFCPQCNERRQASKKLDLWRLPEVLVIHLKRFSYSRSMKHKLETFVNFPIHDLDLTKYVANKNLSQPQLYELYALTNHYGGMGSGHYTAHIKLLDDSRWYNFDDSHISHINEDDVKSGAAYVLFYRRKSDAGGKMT

[5] = target: T4, GATA1 (recombinant, pull-down) (Arabidopsis thaliana, UniProt Q8LAU9 1-274)
T4 sequence (looked up): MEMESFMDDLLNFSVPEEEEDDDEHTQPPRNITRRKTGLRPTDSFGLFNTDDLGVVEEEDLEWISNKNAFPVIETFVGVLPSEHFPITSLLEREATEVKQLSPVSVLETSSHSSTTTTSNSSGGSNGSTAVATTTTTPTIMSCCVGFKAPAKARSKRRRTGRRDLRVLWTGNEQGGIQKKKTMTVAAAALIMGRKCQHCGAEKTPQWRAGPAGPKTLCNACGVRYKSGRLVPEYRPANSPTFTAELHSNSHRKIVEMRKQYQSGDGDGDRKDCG

[6] = target: T5, RING1A (recombinant, pull-down) (Arabidopsis thaliana, UniProt Q9FKW0 1-522)
T5 sequence (looked up): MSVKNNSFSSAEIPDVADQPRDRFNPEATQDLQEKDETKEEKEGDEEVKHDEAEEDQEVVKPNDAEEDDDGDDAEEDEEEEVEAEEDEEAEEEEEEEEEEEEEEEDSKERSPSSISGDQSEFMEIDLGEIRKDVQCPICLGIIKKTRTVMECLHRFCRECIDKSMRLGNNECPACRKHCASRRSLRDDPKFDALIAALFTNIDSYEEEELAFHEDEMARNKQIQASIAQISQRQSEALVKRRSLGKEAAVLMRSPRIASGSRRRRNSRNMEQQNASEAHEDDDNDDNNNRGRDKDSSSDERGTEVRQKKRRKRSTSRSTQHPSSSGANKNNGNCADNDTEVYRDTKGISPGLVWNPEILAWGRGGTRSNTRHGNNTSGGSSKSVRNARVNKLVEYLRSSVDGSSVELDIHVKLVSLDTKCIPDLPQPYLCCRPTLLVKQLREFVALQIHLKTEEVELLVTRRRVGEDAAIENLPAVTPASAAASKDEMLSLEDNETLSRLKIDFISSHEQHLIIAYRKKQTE

[7] = target: T6, BRM-3 (C-terminal domain of the BAS-type SWI/SNF chromatin remodeler BRM, 1,596-2,193 aa) (Arabidopsis thaliana, UniProt Q6EVK6 1596-2193)
T6 sequence (looked up): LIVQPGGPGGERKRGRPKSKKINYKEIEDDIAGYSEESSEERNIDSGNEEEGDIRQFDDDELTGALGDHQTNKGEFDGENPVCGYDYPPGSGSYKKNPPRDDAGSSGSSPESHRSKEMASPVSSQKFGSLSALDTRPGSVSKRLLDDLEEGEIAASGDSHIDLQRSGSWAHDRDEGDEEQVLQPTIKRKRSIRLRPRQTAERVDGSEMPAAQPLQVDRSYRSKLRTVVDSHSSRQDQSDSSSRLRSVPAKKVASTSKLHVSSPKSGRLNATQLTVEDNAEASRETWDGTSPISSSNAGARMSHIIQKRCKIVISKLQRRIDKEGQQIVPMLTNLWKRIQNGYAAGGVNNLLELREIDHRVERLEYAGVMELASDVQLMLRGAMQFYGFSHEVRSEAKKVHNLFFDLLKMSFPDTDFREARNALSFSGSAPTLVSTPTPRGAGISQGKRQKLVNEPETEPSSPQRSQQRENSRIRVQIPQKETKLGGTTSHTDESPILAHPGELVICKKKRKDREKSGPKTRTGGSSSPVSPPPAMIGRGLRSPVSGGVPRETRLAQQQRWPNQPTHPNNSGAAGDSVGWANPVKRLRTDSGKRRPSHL

[8] = target: T7, AL4 (recombinant, pull-down) (Arabidopsis thaliana, UniProt O81488 1-255)
T7 sequence (looked up): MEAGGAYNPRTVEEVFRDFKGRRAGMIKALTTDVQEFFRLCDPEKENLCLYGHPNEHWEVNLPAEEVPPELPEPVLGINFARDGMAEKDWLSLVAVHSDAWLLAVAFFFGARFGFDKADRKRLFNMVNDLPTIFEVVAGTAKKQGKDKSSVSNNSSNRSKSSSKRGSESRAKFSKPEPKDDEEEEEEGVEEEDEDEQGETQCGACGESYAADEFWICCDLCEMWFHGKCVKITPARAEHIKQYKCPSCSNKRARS

[9] = target: T8, HDA19 (HDAC catalytic subunit) (Arabidopsis thaliana, UniProt O22446 1-501)
T8 sequence (looked up): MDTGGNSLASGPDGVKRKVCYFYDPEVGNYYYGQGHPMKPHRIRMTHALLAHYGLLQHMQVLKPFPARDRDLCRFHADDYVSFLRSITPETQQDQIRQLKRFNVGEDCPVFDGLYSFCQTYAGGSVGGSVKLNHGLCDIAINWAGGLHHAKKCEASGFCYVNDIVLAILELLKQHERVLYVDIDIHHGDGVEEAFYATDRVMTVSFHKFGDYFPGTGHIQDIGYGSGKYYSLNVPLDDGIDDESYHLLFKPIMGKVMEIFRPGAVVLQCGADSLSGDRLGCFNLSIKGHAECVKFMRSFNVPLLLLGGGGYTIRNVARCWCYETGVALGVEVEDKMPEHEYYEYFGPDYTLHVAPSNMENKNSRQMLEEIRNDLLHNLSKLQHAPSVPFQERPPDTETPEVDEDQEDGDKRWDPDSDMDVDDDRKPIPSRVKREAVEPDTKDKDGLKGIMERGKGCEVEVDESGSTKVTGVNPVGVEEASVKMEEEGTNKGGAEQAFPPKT

Measured: binding result

Chain of ZF2 (recombinant, pull-down) (Q9SSW2 whole entry): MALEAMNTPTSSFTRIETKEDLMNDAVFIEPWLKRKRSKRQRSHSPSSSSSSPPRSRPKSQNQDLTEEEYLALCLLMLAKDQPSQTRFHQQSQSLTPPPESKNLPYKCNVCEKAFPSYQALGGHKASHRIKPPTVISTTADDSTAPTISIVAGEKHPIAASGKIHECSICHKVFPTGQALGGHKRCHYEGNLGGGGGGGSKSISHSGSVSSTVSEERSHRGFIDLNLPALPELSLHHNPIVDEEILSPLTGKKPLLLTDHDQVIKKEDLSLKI

B1: AL2 (recombinant, pull-down) (natural protein, Arabidopsis thaliana, UniProt Q9SRM4 1-246, looked up)
chain: MAAAAVSSNPRTVEEIFKDYSARRAALLRALTKDVDDFYSQCDPEKENLCLYGHPNESWEVNLPAEEVPPELPEPALGINFARDGMQRKDWLSLVAVHSDCWLLSVSFYFGARLNRNERKRLFSLINDLPTLFDVVTGRKAMKDNKPSSDSGSKSRNGTKRSIDGQTKSSTPKLMEESYEEEEEEDEHGDTLCGSCGGHYTNEEFWICCDVCERWYHGKCVKITPAKAESIKQYKCPPCCAKKGRQ
binds: [1] | [2] | [3] | [4] | [5] | [6] | [7] | [8] | [9]

From doi:10.1101/2024.09.12.612777 (bioRxiv, 2024)
